Our source for the stoichiometry N values is doi:10.1101/2021.01.25.428026.

For test [1], the target named is recombinant DJ-1 C46A mutant (human) (UniProt Q99497). Description: non-reducing SDS-PAGE.
Test [2] deals with recombinant DJ-1 C53A mutant (human) (UniProt Q99497). Description: non-reducing SDS-PAGE.

One may read the stoichiometry N as a count of units in the complex or per binding partner.

As for “recombinant DJ-1 C46A mutant (from UniProt Q99497 1-189) (natural protein)”, the stoichiometry N in test [1] came out at 3.

As for “recombinant DJ-1 C53A mutant (from UniProt Q99497 1-189) (natural protein)”, in test [2], the stoichiometry N is 3.
